Experimental data published in article PMC9482650, “Quantitative fragmentomics allow affinity mapping of interactomes” (Nature Communications, 2022).
Numbering of substitutions follows the chain as printed.

T1: APBA2_2, Q99767
T1 sequence (Q99767 654-744, limits assumed, looked up): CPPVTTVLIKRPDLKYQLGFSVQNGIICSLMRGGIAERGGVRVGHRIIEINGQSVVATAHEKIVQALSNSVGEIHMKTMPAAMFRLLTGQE

T2: APBA3_1, O96018
T2 sequence (O96018 389-490, limits assumed, looked up): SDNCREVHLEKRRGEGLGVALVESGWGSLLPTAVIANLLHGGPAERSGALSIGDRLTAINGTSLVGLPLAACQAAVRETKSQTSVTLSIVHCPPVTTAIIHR

T3: GRIP1_4, Q9Y3R0
T3 sequence (Q9Y3R0 467-571, limits assumed, looked up): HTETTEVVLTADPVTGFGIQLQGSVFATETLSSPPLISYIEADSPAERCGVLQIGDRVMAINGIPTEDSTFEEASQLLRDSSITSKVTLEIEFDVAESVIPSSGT

T4: HTRA3, P83110
T4 sequence (P83110 354-453, limits assumed, looked up): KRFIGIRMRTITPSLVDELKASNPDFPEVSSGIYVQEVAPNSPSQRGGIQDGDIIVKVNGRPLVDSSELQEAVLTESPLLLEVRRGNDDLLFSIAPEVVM

T5: LIN7B, Q9HAP6
T5 sequence (Q9HAP6 88-185, limits assumed, looked up): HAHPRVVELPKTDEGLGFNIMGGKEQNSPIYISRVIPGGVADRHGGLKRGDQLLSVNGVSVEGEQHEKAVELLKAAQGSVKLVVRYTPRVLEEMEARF

T6: LIN7C, Q9NUP9
T6 sequence (Q9NUP9 88-185, limits assumed, looked up): T5 sequence (Q9HAP6 88-185, limits assumed, looked up) with A2S, D13E, V35I, V40I, Q65H, S79K, R89K, A96S

T7: MPDZ_5, O75970
T7 sequence (O75970 695-796, limits assumed, looked up): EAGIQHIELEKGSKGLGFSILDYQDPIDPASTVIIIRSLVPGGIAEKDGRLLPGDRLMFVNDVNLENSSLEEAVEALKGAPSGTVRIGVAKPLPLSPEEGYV

T8: NHERF3_3, Q5T2W1
T8 sequence (Q5T2W1 238-333, limits assumed, looked up): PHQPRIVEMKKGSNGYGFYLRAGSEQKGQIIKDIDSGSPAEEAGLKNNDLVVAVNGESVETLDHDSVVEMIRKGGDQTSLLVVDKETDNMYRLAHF

T9: PDZD7_3, Q9H5P4
T9 sequence (Q9H5P4 857-944, limits assumed, looked up): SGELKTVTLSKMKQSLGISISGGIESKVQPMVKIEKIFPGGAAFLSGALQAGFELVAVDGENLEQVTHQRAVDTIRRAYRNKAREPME

B1: NDE1, Q9NXR1;Q9NXR1-2 (peptide)
chain: KSTTRSSSSC
B2: LSM14A, Q8ND56;Q8ND56-2 (peptide)
chain: EYRKDNKVAA
B3: PPP1R3G, B7ZBB8 (peptide)
chain: LRYARPADAL
B4: COMMD3, Q9UBI1 (peptide)
chain: SKSLERATQL
B5: VAC14, Q08AM6 (peptide)
chain: GDHLDRRVVL

Target: AHNAK1, Q09666
Sequence (Q09666 4-100): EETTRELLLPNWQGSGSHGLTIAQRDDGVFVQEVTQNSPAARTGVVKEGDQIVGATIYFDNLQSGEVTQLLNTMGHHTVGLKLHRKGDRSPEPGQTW
Assay: holdup assay
Design: key: below the threshold = too weak to quantify, mostly under pKd 3.1 to 4
Settings: plain residues with an end cap or a label only (N-terminal biotin on a linker: ado-ado)

pKd | Binder
below the threshold | B1
below the threshold | B2
below the threshold | B3
below the threshold | B4
below the threshold | B5

Target: T1, APBA2_2, Q99767
Assay: holdup assay
Design: key: below the threshold = too weak to quantify, mostly under pKd 3.1 to 4
Settings: plain residues with an end cap or a label only (N-terminal biotin on a linker: ado-ado)

pKd | Binder
below the threshold | B1
below the threshold | B2
below the threshold | B3
below the threshold | B4
below the threshold | B5

Target: T2, APBA3_1, O96018
Assay: holdup assay
Design: key: below the threshold = too weak to quantify, mostly under pKd 3.1 to 4
Settings: plain residues with an end cap or a label only (N-terminal biotin on a linker: ado-ado)

pKd | Binder
below the threshold | B1
below the threshold | B2
below the threshold | B3
below the threshold | B4
below the threshold | B5

Target: ARHGEF12, Q9NZN5-2
Sequence (Q9NZN5 other isoform, or with tags, fused parts or gaps): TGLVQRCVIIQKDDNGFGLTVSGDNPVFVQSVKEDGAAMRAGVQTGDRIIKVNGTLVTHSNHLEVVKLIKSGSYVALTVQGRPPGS
Assay: holdup assay
Design: key: below the threshold = too weak to quantify, mostly under pKd 3.1 to 4
Settings: plain residues with an end cap or a label only (N-terminal biotin on a linker: ado-ado)

pKd | Binder
4.62 | B1
below the threshold | B2
below the threshold | B3
4.79 | B4
3.61 | B5

Target: DLG1_1, Q12959
Assay: holdup assay
Design: key: below the threshold = too weak to quantify, mostly under pKd 3.1 to 4
Settings: plain residues with an end cap or a label only (N-terminal biotin on a linker: ado-ado)

pKd | Binder
below the threshold | B1
below the threshold | B2
below the threshold | B3
3.55 | B4
below the threshold | B5

Target: DLG2_2, Q15700
Sequence (Q15700 189-283): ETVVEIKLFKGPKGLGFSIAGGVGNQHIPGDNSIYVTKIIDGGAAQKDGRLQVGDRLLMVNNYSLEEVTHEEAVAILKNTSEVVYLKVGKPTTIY
Assay: holdup assay
Design: key: below the threshold = too weak to quantify, mostly under pKd 3.1 to 4
Settings: plain residues with an end cap or a label only (N-terminal biotin on a linker: ado-ado)

pKd | Binder
below the threshold | B1
below the threshold | B3
3.83 | B4
below the threshold | B5

Target: DLG4_2, P78352
Sequence (P78352 155-259): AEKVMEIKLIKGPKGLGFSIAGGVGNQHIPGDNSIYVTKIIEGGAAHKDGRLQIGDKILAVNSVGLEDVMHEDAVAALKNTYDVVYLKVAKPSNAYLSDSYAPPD
Assay: holdup assay
Design: key: below the threshold = too weak to quantify, mostly under pKd 3.1 to 4
Settings: plain residues with an end cap or a label only (N-terminal biotin on a linker: ado-ado)

pKd | Binder
below the threshold | B1
below the threshold | B3
3.97 | B4
below the threshold | B5

Target: DLG4_3, P78352
Sequence (P78352 306-403): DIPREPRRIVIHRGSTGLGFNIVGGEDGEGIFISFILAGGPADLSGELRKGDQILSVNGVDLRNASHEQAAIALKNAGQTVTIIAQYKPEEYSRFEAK
Assay: holdup assay
Design: key: below the threshold = too weak to quantify, mostly under pKd 3.1 to 4
Settings: plain residues with an end cap or a label only (N-terminal biotin on a linker: ado-ado)

pKd | Binder
below the threshold | B1
below the threshold | B2
below the threshold | B3
below the threshold | B4
below the threshold | B5

Target: FRMPD3, Q5JV73
Sequence (Q5JV73 12-100): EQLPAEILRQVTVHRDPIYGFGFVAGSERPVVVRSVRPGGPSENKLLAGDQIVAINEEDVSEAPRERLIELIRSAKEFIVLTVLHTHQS
Assay: holdup assay
Design: key: below the threshold = too weak to quantify, mostly under pKd 3.1 to 4
Settings: plain residues with an end cap or a label only (N-terminal biotin on a linker: ado-ado)

pKd | Binder
below the threshold | B1
below the threshold | B2
below the threshold | B3
below the threshold | B4
below the threshold | B5

Target: T3, GRIP1_4, Q9Y3R0
Assay: holdup assay
Design: key: below the threshold = too weak to quantify, mostly under pKd 3.1 to 4
Settings: plain residues with an end cap or a label only (N-terminal biotin on a linker: ado-ado)

pKd | Binder
below the threshold | B1
below the threshold | B2
below the threshold | B3
below the threshold | B4
below the threshold | B5

Target: GRIP2_7, Q9C0E4
Sequence (Q9C0E4 934-1023): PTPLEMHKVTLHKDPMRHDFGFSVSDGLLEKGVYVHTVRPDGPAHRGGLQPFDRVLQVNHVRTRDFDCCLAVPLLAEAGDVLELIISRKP
Assay: holdup assay
Design: key: below the threshold = too weak to quantify, mostly under pKd 3.1 to 4
Settings: plain residues with an end cap or a label only (N-terminal biotin on a linker: ado-ado)

pKd | Binder
below the threshold | B1
below the threshold | B2
below the threshold | B3
3.51 | B4
3.53 | B5

Target: HTRA1, Q92743
Sequence (Q92743 360-477): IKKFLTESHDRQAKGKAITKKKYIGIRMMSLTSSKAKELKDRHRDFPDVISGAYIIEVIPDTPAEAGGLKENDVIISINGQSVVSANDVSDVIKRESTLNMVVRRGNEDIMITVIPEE
Assay: holdup assay
Design: key: below the threshold = too weak to quantify, mostly under pKd 3.1 to 4
Settings: plain residues with an end cap or a label only (N-terminal biotin on a linker: ado-ado)

pKd | Binder
below the threshold | B1
3.67 | B3
3.89 | B4
4.25 | B5

Target: T4, HTRA3, P83110
Assay: holdup assay
Design: key: below the threshold = too weak to quantify, mostly under pKd 3.1 to 4
Settings: plain residues with an end cap or a label only (N-terminal biotin on a linker: ado-ado)

pKd | Binder
below the threshold | B2
below the threshold | B3
below the threshold | B4
below the threshold | B5

Target: IL16_1, Q14005
Sequence (Q14005 210-306): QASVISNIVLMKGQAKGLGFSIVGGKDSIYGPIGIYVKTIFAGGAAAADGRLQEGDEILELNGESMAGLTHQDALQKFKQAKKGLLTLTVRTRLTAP
Assay: holdup assay
Design: key: below the threshold = too weak to quantify, mostly under pKd 3.1 to 4
Settings: plain residues with an end cap or a label only (N-terminal biotin on a linker: ado-ado)

pKd | Binder
below the threshold | B1
below the threshold | B2
below the threshold | B3
below the threshold | B4
below the threshold | B5

Target: IL16_4, Q14005
Sequence (Q14005 1229-1329): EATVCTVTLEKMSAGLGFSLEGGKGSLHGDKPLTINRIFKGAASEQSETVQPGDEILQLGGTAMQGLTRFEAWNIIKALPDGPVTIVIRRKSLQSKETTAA
Assay: holdup assay
Design: key: below the threshold = too weak to quantify, mostly under pKd 3.1 to 4
Settings: plain residues with an end cap or a label only (N-terminal biotin on a linker: ado-ado)

pKd | Binder
below the threshold | B1
below the threshold | B2
below the threshold | B3
3.95 | B4
below the threshold | B5

Target: Inadl_10, Q8NI35
Sequence (Q8NI35 1673-1763): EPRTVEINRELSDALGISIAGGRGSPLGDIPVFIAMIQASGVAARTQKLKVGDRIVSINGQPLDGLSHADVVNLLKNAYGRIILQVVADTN
Assay: holdup assay
Design: key: below the threshold = too weak to quantify, mostly under pKd 3.1 to 4
Settings: plain residues with an end cap or a label only (N-terminal biotin on a linker: ado-ado)

pKd | Binder
below the threshold | B1
below the threshold | B2
below the threshold | B3
below the threshold | B4
below the threshold | B5

Target: Inadl_5, Q8NI35
Sequence (Q8NI35 673-780): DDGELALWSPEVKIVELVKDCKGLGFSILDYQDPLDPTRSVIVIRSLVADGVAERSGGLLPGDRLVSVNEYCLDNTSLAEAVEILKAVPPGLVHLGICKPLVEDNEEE
Assay: holdup assay
Design: key: below the threshold = too weak to quantify, mostly under pKd 3.1 to 4
Settings: plain residues with an end cap or a label only (N-terminal biotin on a linker: ado-ado)

pKd | Binder
below the threshold | B1
below the threshold | B2
below the threshold | B3
below the threshold | B4
3.48 | B5

Target: LAP2, Q96RT1
Sequence (Q96RT1 other isoform, or with tags, fused parts or gaps): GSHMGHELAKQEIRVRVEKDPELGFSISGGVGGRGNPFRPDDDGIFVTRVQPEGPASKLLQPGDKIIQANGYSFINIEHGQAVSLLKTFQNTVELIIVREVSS
Assay: holdup assay
Design: key: below the threshold = too weak to quantify, mostly under pKd 3.1 to 4
Settings: plain residues with an end cap or a label only (N-terminal biotin on a linker: ado-ado)

pKd | Binder
below the threshold | B1
below the threshold | B2
below the threshold | B3
below the threshold | B4
3.93 | B5

Target: LDB3, O75112
Sequence (O75112 1-94): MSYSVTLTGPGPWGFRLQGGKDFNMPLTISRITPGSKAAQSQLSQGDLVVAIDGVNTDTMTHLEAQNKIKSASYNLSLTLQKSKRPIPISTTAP
Assay: holdup assay
Design: key: below the threshold = too weak to quantify, mostly under pKd 3.1 to 4
Settings: plain residues with an end cap or a label only (N-terminal biotin on a linker: ado-ado)

pKd | Binder
below the threshold | B1
below the threshold | B2
below the threshold | B3
below the threshold | B4
below the threshold | B5

Target: T5, LIN7B, Q9HAP6
Assay: holdup assay
Design: key: below the threshold = too weak to quantify, mostly under pKd 3.1 to 4
Settings: plain residues with an end cap or a label only (N-terminal biotin on a linker: ado-ado)

pKd | Binder
below the threshold | B3
3.87 | B4
below the threshold | B5

Target: T6, LIN7C, Q9NUP9
Assay: holdup assay
Design: key: below the threshold = too weak to quantify, mostly under pKd 3.1 to 4
Settings: plain residues with an end cap or a label only (N-terminal biotin on a linker: ado-ado)

pKd | Binder
below the threshold | B2
below the threshold | B3
below the threshold | B4
4.04 | B5

Target: LNX1_3, Q8TBB1
Sequence (Q8TBB1 500-596): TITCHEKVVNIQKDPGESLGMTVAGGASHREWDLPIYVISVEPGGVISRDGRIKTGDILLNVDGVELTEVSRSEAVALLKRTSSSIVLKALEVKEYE
Assay: holdup assay
Design: key: below the threshold = too weak to quantify, mostly under pKd 3.1 to 4
Settings: plain residues with an end cap or a label only (N-terminal biotin on a linker: ado-ado)

pKd | Binder
below the threshold | B1
below the threshold | B2
below the threshold | B3
below the threshold | B4
below the threshold | B5

Target: MAGI2_3, Q86UL8
Sequence (Q86UL8 600-682): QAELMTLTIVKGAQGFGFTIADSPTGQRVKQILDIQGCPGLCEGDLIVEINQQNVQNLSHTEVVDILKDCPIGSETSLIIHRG
Assay: holdup assay
Design: key: below the threshold = too weak to quantify, mostly under pKd 3.1 to 4
Settings: plain residues with an end cap or a label only (N-terminal biotin on a linker: ado-ado)

pKd | Binder
below the threshold | B1
below the threshold | B2
below the threshold | B3
below the threshold | B4
3.54 | B5

Target: MAGI2_4, Q86UL8
Sequence (Q86UL8 772-865): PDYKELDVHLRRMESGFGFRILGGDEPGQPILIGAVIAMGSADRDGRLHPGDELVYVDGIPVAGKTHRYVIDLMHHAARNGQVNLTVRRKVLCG
Assay: holdup assay
Design: key: below the threshold = too weak to quantify, mostly under pKd 3.1 to 4
Settings: plain residues with an end cap or a label only (N-terminal biotin on a linker: ado-ado)

pKd | Binder
below the threshold | B1
below the threshold | B2
below the threshold | B3
3.94 | B4
below the threshold | B5

Target: T7, MPDZ_5, O75970
Assay: holdup assay
Design: key: below the threshold = too weak to quantify, mostly under pKd 3.1 to 4
Settings: plain residues with an end cap or a label only (N-terminal biotin on a linker: ado-ado)

pKd | Binder
below the threshold | B1
below the threshold | B2
below the threshold | B3
below the threshold | B4
below the threshold | B5

Target: T8, NHERF3_3, Q5T2W1
Assay: holdup assay
Design: key: below the threshold = too weak to quantify, mostly under pKd 3.1 to 4
Settings: plain residues with an end cap or a label only (N-terminal biotin on a linker: ado-ado)

pKd | Binder
below the threshold | B1
below the threshold | B2
below the threshold | B3
3.8 | B4
below the threshold | B5

Target: PDLIM1, O00151
Sequence (O00151 1-87): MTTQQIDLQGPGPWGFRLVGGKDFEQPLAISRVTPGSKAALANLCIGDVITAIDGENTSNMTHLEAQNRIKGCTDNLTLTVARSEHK
Assay: holdup assay
Design: key: below the threshold = too weak to quantify, mostly under pKd 3.1 to 4
Settings: plain residues with an end cap or a label only (N-terminal biotin on a linker: ado-ado)

pKd | Binder
below the threshold | B1
below the threshold | B2
below the threshold | B3
below the threshold | B4
below the threshold | B5

Target: T9, PDZD7_3, Q9H5P4
Assay: holdup assay
Design: key: below the threshold = too weak to quantify, mostly under pKd 3.1 to 4
Settings: plain residues with an end cap or a label only (N-terminal biotin on a linker: ado-ado)

pKd | Binder
below the threshold | B2
below the threshold | B3
4.23 | B4
3.69 | B5

Target: PDZRN4_1, Q6ZMN7
Sequence (Q6ZMN7 213-318): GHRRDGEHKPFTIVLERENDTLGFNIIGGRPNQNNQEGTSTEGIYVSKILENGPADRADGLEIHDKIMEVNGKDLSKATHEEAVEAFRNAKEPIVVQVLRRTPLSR
Assay: holdup assay
Design: key: below the threshold = too weak to quantify, mostly under pKd 3.1 to 4
Settings: plain residues with an end cap or a label only (N-terminal biotin on a linker: ado-ado)

pKd | Binder
below the threshold | B1
below the threshold | B2
below the threshold | B3
3.89 | B4
below the threshold | B5
